This data set deals with T1, Rap1-Halo (Saccharomyces cerevisiae) (UniProt P11938).
T1 sequence: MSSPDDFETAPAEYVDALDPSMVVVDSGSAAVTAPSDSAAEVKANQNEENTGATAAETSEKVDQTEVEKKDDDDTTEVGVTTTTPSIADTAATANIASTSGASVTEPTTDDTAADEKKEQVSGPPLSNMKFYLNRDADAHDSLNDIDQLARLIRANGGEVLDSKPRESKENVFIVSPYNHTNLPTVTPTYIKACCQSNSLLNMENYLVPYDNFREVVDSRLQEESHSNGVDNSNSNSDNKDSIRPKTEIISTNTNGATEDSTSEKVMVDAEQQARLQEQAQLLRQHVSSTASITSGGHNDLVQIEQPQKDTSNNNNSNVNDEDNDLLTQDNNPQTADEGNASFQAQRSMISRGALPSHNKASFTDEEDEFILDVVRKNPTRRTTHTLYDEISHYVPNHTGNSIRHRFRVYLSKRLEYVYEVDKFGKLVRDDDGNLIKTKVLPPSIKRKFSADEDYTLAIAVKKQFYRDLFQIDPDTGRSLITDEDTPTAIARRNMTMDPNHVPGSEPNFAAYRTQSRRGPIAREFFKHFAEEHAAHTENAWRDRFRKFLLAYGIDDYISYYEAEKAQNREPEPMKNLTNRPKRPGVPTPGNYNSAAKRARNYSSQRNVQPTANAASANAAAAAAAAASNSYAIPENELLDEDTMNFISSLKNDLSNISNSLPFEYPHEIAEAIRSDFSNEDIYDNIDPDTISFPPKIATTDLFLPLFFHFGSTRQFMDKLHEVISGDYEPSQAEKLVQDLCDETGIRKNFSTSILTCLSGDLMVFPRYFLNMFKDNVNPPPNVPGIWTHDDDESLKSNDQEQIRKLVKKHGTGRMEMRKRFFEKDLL
Kind of data set: EMSA. Conditions: EMSA (DNA): 50 mM HEPES pH 7.5, 130 mM KCl, 10% glycerol, 0.005% Tween 20, 2 mM Trolox, 3.2% glucose, 50 ng/ul poly-d(I-C), 10 min, room temperature; smTIRF …. (In EMSA bound probe runs differently from free probe, usually more slowly.)

Usually Kd stands for the free concentration of one partner at which half of the binding sites on the other are occupied at equilibrium, for simple one-to-one binding. A lower Kd goes with a tighter complex.

For the sequence “CACACTGTGCCAAGTACTTACGCGGCCGCCCTGGAGAATCCCGGTGCCGTACATCTGTGCACCGTCGTAGACAGCTCTAGCACCGCTTAAACGCACGTACGCGCTGTCCCCCGCGTTTTAACCGCCAAGGGGATTACTCCCTAGTCTCCAGGCACGTGTCAGATACTGCAGAGATCTCTAGATCCATGGAGTACTTGGTCTCAAACC (double strand) [MN S1]”, the Kd is 76.4 nM.

The sequence “CACACTGTGCCAAGTACTTACGCGGCCGCCCTGGAGAATCCCGGTGCCGAGGCCGTACATCTGTGCACCGACAGCTCTAGCACCGCTTAAACGCACGTACGCGCTGTCCCCCGCGTTTTAACCGCCAAGGGGATTACTCCCTAGTCTCCAGGCACGTGTCAGATACTGCAGAGATCTCTAGATCCATGGAGTACTTGGTCTCAAACC (double strand) [MN S1+6]” registered a Kd of 62.7 nM. To “CACACTGTGCCAAGTACTTACGCGGCCGCCCTGGAGAATCCCGGTGCCGAGGTACATCTGTGCACCGTAGACAGCTCTAGCACCGCTTAAACGCACGTACGCGCTGTCCCCCGCGTTTTAACCGCCAAGGGGATTACTCCCTAGTCTCCAGGCACGTGTCAGATACTGCAGAGATCTCTAGATCCATGGAGTACTTGGTCTCAAACC (double strand) [MN S1+3]” belongs 48.5 nM.

The values above are taken from publication PMC7005674.
